{"source": "patent US20200131227A1", "about": "“POLYPEPTIDE WITH TUMOUR BINDING ACTIVITY” (RUPRECHT-KARLS-UNIVERSITÄT HEIDELBERG, priority 2017, published 2020)", "key": {"[1]": {"test_system": "HNO399 xenografts", "assay": "Biodistribution, HNO399 xenografts", "type": "in vivo, mice"}, "[2]": {"test_system": "HNSCC tumor sections (HNO97 xenograft, HNO444, HNO399, HNO210)", "assay": "Histochemical peptide staining of HNSCC tumor cryosections", "parameters": "species or system human", "details": "biotinylated PEG(12)-peptide, 10^-5 M", "description": "Staining with the biotinylated PEG(12)-SFITGv6 peptide was performed on acetone-fixed cryosections (5 μm) of tumor tissues after blocking of unspecific binding using the Avidin/Biotin Blocking Kit (SP-2001, Vector Laboratories). A stock solution of the lyophilized peptide was prepared by dilution in 5% aqueous DMSO. Slices were incubated overnight at 4° C. with 10^-5 M peptide concentration in antibody diluent (DAKO). Detection of bound peptide was carried out with the Vectastain Elite ABC Kit (PK-6100, Vector Laboratories) according to manufacturer's protocol. Peptide specificity was ensured by a scrambled (GRD) PEG(12)-SFITGv6 derivate, the somatostatin receptor ligand DOTATOC and negative controls (without peptide or primary antibody) Staining results were assessed by bright field microscopy (BX50) with the SC30 camera and the cell Sense software (all Olympus).\nImmunohistochemical stainings were performed by use of the biotinylated PEG(12)-labled peptides (SFITGv6, SFLAP3) on 5 μm acetone-fixed tumor tissue cryosections. To prevent background staining we initially applied the Avidin/Biotin Blocking Kit (SP-2001, Vector Laboratories). The lyophilized peptides were diluted in 5% aqueous DMSO preparing a 1 mM Stock solution. The HNSCC cryosections were incubated with 10^−5 M peptide concentration in antibody diluent (DAKO) at 4° C. overnight. To detect bound peptide the Vectastain Elite ABC Kit (PK-6100, Vector Laboratories) was applied according to manufacturer's protocol. Peptide binding specificity was ensured by use of a peptide derivate (scrambled control) and negative controls (without peptide). Due to instability of the peptide binding staining results were assessed on the same day by bright field microscopy (BX50) with the SC30 camera and the cell Sense software (all Olympus)."}, "[3]": {"assay": "Serum stability assay (radio-HPLC)", "type": "in vitro ADME, human", "details": "radio-HPLC, 37° C., up to 24 hours", "description": "Five MBq of the purified ^131I-radiolabeled peptide was incubated in 300 μL human serum at 37° C. After different time intervals (15 min to 24 hours) 20 μL serum was precipitated with 40 μL acetonitrile. The stability of the labeled peptide in the supernatant was monitored by radio-HPLC at selected time points using a chromolith performance RP18ec column (3 mm×100 mm) equipped with a gamma detector (Packard COBRA™ Auto-Gamma, GMI). Separation condition was a gradient of 0% to 60% aqueous acetonitrile supplemented with 0.1% TFA over 10 min with a flow rate of 2 mL/min."}, "[4]": {"test_system": "HNO223 xenografts", "assay": "Biodistribution, HNO223 xenografts", "type": "in vivo, mice"}, "[5]": {"target": "ITGαvβ3 (Homo sapiens, UniProt P05106+P06756)", "sequence (P06756 31-992 limits assumed)": "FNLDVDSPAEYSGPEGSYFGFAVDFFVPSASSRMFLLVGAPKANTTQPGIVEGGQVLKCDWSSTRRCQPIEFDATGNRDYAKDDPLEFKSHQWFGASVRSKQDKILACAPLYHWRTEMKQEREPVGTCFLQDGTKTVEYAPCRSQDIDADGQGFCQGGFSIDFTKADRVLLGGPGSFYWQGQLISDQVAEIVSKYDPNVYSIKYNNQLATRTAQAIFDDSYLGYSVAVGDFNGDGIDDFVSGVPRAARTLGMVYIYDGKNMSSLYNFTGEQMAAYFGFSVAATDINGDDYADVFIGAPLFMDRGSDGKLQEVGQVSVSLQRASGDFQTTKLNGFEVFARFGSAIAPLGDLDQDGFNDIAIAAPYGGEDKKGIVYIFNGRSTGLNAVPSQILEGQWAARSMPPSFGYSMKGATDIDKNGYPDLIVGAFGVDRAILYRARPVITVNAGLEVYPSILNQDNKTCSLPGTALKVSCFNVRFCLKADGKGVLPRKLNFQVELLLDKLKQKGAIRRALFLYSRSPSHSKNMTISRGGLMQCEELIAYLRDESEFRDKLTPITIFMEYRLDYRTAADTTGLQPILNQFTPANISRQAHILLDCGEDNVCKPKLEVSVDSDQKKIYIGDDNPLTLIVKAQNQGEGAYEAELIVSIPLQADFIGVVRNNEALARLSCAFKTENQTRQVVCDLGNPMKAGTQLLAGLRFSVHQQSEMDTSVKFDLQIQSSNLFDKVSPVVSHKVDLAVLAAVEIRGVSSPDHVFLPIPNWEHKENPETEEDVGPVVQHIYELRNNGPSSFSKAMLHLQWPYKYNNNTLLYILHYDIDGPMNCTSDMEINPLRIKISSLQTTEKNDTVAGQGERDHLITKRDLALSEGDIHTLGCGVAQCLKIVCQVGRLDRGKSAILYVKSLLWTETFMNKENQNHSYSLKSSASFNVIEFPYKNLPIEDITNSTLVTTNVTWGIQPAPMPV", "sequence (P05106 27-718 limits assumed)": "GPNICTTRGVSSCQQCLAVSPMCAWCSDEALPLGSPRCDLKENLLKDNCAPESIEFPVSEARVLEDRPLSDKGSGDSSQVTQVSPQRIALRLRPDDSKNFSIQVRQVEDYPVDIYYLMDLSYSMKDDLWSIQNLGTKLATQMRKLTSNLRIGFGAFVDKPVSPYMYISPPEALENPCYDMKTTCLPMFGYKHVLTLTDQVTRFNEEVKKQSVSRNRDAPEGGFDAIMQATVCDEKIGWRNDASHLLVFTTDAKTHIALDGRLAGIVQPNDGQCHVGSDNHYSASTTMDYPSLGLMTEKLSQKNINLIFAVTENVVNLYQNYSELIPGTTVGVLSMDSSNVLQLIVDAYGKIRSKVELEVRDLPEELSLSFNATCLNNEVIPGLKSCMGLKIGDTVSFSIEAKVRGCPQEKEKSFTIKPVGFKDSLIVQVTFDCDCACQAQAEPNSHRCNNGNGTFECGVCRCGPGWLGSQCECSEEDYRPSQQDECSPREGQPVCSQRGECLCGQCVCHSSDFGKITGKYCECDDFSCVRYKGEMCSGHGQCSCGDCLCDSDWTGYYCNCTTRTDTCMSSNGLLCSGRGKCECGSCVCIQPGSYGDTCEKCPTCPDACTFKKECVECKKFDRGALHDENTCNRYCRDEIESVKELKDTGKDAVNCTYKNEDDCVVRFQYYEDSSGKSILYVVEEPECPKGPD", "assay": "Surface plasmon resonance assay (SPR), ITGαvβ3", "type": "binding", "details": "SPR", "description": "(§1) Assessment of the binding affinity was performed on a BiaCore X100 (GE Healthcare). To avoid denaturation of the heterodimer during amide activation ITGαvβ6 and ITGαvβ3, respectively, were used as analytes and SFITGv6 was immobilized at its N-terminus on a C1 sensor Chip (BR-1005-35, GE Healthcare) using a manual amine coupling protocol. Briefly, after activation of the sensor chip surface with a solution of EDC 0.4 M/NHS 0.1 M for 5 min a 100 μM peptide dissolved in HBS-EP running buffer (0.1 M HEPES, 30 mM EDTA, 1.5 M NaCl, 0.5% surfactant P20, pH 7.2) was immobilized with a contact time of 30 sec until a loading level of 18 response units (RU) was obtained. […] The SPR-sensogram data were evaluated with the BiaCore evaluation software. The dissociation constant (KD) was determined by a 1:1 Langmuir model fit of the SPR-sensograms.\nas §1, with “SFLAP3” for “peptide”, “to obtain” for “until”, “12” for “18”, “(RU).” for “(RU) was obtained.”, “SPR sensogram” for “SPR-sensogram”, “SPR sensograms.” for “SPR-sensograms.”"}, "[6]": {"target": "integrin αvβ6 (ITGαvβ6) as expressed on human carcinoma cell lines and tumor tissue sections (human) (UniProt P06756)", "sequence (P06756 31-1048, chain 1 of 2)": "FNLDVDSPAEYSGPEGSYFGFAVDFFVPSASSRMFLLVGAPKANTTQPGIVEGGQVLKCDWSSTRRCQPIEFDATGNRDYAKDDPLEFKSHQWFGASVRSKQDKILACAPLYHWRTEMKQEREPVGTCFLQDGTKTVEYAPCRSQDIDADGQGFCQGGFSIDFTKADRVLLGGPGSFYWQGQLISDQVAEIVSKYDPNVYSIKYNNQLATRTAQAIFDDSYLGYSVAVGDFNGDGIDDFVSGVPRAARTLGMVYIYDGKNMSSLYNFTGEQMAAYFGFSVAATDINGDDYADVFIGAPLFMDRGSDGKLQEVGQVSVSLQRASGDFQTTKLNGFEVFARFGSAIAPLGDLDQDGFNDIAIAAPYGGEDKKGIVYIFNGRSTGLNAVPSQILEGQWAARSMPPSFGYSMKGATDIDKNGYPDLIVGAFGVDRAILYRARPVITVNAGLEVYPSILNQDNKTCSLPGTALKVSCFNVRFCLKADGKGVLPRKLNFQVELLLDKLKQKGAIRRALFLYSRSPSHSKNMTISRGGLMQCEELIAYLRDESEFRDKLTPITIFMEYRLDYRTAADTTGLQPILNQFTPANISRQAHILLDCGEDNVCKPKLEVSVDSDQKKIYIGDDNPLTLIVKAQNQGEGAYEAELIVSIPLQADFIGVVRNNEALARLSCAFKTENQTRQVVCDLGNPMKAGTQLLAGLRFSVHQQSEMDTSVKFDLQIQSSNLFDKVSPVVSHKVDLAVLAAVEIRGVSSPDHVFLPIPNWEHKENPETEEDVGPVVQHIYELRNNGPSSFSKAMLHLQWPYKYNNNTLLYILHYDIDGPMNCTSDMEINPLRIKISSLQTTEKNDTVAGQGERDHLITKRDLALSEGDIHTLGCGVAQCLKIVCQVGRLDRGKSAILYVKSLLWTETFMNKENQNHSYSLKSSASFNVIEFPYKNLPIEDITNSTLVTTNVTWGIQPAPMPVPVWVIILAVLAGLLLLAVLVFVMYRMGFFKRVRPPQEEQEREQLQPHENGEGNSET", "sequence (P18564 22-788, chain 2 of 2, further chain)": "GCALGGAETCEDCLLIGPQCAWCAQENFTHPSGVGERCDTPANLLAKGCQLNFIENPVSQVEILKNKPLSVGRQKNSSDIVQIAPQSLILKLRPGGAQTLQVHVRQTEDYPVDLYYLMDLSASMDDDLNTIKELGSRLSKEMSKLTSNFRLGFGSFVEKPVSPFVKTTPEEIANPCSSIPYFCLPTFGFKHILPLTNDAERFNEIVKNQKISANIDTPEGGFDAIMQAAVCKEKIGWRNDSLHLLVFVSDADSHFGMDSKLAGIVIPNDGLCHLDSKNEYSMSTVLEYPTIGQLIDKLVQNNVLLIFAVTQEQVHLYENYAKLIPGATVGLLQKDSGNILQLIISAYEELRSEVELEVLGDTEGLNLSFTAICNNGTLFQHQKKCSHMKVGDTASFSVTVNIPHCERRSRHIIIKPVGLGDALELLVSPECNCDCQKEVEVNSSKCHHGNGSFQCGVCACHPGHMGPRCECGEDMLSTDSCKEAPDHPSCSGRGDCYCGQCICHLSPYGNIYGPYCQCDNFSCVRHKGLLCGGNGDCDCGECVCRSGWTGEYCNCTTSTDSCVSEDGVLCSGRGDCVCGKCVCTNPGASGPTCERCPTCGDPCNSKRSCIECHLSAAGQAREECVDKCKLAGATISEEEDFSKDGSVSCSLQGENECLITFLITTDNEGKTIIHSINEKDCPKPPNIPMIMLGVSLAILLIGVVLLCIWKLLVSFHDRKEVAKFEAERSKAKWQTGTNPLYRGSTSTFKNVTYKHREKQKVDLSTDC", "assay": "peptide competing with 125I-SFITGv6 on HNO97 cells, 60 min"}, "[7]": {"target": "T1, integrin αvβ6 (ITGαvβ6) as expressed on human carcinoma cell lines and tumor tissue sections (human, UniProt P06756 31-1048; P18564 22-788)", "T1 construct": "whole, on cells; also called ITGAVB6; ITGαvβ6-expressing HNO97 cells", "T1 sequence (P06756 31-1048, chain 1 of 2)": "as the sequence (P06756 31-1048, chain 1 of 2) above", "T1 sequence (P18564 22-788, chain 2 of 2)": "as the sequence (P18564 22-788, chain 2 of 2, further chain) above", "assay": "competition of unlabeled SFLAP3 with 125I-SFLAP3 on HNO97 cells"}, "[8]": {"target": "T1, integrin αvβ6 (ITGαvβ6) as expressed on …", "assay": "competition of unlabeled SFLAP3 with 125I-SFLAP3 on HNO223 cells"}, "[9]": {"target": "T2, ITGαvβ3 heterodimer (analyte in SPR) (UniProt P06756 31-992; P05106 27-718, limits assumed)", "T2 construct": "Soluble heterodimer used as analyte over immobilised peptide; construct not described", "T2 sequence (P06756 31-992 limits assumed, chain 1 of 2)": "as the sequence (P06756 31-992 limits assumed) above", "T2 sequence (P05106 27-718 limits assumed, chain 2 of 2)": "as the sequence (P05106 27-718 limits assumed) above", "assay": "SPR, αvβ3 heterodimer against ITGαvβ6 on immobilised SFLAP3"}, "[10]": {"target": "T1, integrin αvβ6 (ITGαvβ6) as expressed on …", "assay": "125I-peptide binding to HNO199 cells, 60 min"}, "[11]": {"target": "T1, integrin αvβ6 (ITGαvβ6) as expressed on …", "assay": "unlabeled peptide competing with 125I-SFLAP3 on HNSCC cell lines (HNO97, HNO399, HNO223), mean; mean over HNSCC cell lines"}, "[12]": {"target": "T1, integrin αvβ6 (ITGαvβ6) as expressed on …", "assay": "125I-peptide binding to HNO210 cells, 60 min"}, "[13]": {"target": "T1, integrin αvβ6 (ITGαvβ6) as expressed on …", "assay": "competition of unlabeled SFLAP3 with 125I-SFLAP3 on HNO399 cells"}, "[14]": {"target": "T3, ITGαvβ6 heterodimer (analyte in SPR) (UniProt P06756 31-992; P18564 22-707, limits assumed)", "T3 construct": "Soluble heterodimer used as analyte over immobilised peptide; construct not described; also called heterodimeric receptor ITGαvβ6", "T3 sequence (P06756 31-992 limits assumed, chain 1 of 2)": "as the sequence (P06756 31-992 limits assumed) above", "T3 sequence (P18564 22-707 limits assumed, chain 2 of 2)": "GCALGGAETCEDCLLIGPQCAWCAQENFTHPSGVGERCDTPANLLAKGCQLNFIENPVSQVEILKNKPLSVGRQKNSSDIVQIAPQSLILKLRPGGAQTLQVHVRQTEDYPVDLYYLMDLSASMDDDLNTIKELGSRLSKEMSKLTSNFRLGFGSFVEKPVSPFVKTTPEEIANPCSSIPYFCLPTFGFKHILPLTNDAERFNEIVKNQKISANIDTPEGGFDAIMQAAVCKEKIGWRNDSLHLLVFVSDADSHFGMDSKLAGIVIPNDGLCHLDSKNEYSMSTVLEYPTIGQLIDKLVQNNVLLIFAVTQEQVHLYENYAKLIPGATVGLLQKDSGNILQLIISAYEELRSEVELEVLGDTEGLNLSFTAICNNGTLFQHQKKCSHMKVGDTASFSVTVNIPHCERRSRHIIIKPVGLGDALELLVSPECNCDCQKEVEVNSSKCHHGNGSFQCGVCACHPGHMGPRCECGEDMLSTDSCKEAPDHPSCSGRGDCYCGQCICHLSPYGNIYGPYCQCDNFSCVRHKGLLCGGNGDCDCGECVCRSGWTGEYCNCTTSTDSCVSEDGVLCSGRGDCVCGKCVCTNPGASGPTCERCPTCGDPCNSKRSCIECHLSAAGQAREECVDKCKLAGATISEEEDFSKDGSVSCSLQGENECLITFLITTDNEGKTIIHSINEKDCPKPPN", "assay": "SPR (BiaCore X100), peptide immobilised on C1 chip, ITGαvβ6 as analyte, 1:1 Langmuir fit; SPR, ITGαvβ6 as analyte"}, "[15]": {"target": "T1, integrin αvβ6 (ITGαvβ6) as expressed on …", "assay": "125I-peptide binding to HNO97 cells, 60 min"}, "[16]": {"target": "T1, integrin αvβ6 (ITGαvβ6) as expressed on …", "assay": "125I-peptide binding to HNO223 cells, 60 min"}, "[17]": {"target": "T2, ITGαvβ3 heterodimer (analyte in SPR)", "assay": "SPR (BiaCore X100), peptide immobilised on C1 chip, ITGαvβ3 as analyte, 1:1 Langmuir fit; SPR, αvβ3 as analyte"}, "[18]": {"target": "T1, integrin αvβ6 (ITGαvβ6) as expressed on …", "assay": "unlabeled peptide competing with 125I-SFITGv6 on HNSCC cell lines (HNO97, HNO399, HNO223), mean; mean over HNSCC cell lines"}, "[19]": {"target": "T1, integrin αvβ6 (ITGαvβ6) as expressed on …", "assay": "unlabeled peptide competing with 125I-SFITGv6 on HNO97 cells, 60 min; HNO97 cells, cell competition IC50"}, "[20]": {"target": "T2, ITGαvβ3 heterodimer (analyte in SPR)", "assay": "SPR, ITGαvβ3 against ITGαvβ6 on immobilised SFITGv6"}, "[21]": {"target": "T2, ITGαvβ3 heterodimer (analyte in SPR)", "assay": "SPR (BiaCore X100), peptide immobilised on C1 chip, ITGαvβ3 as analyte, 1:1 Langmuir fit; SPR, ITGαvβ3 as analyte"}, "[22]": {"target": "T1, integrin αvβ6 (ITGαvβ6) as expressed on …", "assay": "unlabeled peptide (10^-10 to 10^-4 M) competing with the 125I-labeled peptide on HNO97 cells"}}, "note": "“Also recorded” adds a separate entry of the source. Where a SMILES comes first, the peptide text is derived from it. Bridges are numbered along the chain shown (N, C = ends). Where no end group is shown, it is not given here.", "data": [{"molecule": "CC(C)C[C@@H]1NC(=O)[C@H](CC(=O)O)NC(=O)CNC(=O)[C@H](CCCNC(=N)N)NC(=O)CNC(=O)[C@H]([C@@H](C)O)NC(=O)[C@@H](NC(=O)[C@H](CCCNC(=N)N)NC(=O)CN)CSSC[C@@H](C(=O)N[C@@H](Cc2ccc(O)cc2)C(=O)N2CCC[C@H]2C(=O)N[C@@H](CC(=O)O)C(=O)O)NC(=O)[C@H](CC(C)C)NC(=O)[C@H](CCCNC(=N)N)NC(=O)CNC1=O", "note": "[SFLAP3, H2N-G-R-C1-T-G-R-G-D-L-G-R-L-C2-Y-P-D-COOH] (H-GRCTGRGDLGRLCYPD-OH; disulfide 3-13)", "values": [{"measurement": "maximum accumulation in the tumor lesion", "setting": "[1]; 60 min post injection", "result": 3.6, "unit": "% ID/g"}, {"measurement": "accumulation in the tumor after decrease", "setting": "[1]; 360 min after injection", "result": "~2", "unit": "%"}, {"measurement": "histochemical peptide staining result", "setting": "[2]", "result": "slightly fainter staining capacity"}, {"measurement": "proteolytic stability in human serum", "setting": "[3]", "result": "no degradation over a 24 hours; also recorded: shown for up to 24 hours"}, {"measurement": "maximum accumulation in the tumor lesion", "setting": "[4]; 60 min post injection, HNO233-xenografted as printed", "result": 3.4, "unit": "% ID/g"}, {"measurement": "accumulation in the tumor after decrease", "setting": "[4]; 360 min after injection", "result": "~2", "unit": "%"}, {"measurement": "lower affinity for ITGαvβ3 than for ITGαvβ6", "setting": "[5]", "result": 10, "unit": "fold"}]}, {"molecule": "A20FMDV2 (peptide)", "values": [{"measurement": "IC50", "setting": "[6]", "result": 3.2, "unit": "nM"}]}, {"molecule": "GRCTGRGDLGRLCYPD (disulfide 3-13 (inferred); not fully specified (C-terminus); also: 125I on the tyrosine in labelled tracer form)", "note": "[SFLAP3]", "values": [{"measurement": "IC50", "setting": "[7]", "result": 4.7, "unit": "nM"}, {"measurement": "IC50", "setting": "[8]", "result": 2.56, "unit": "nM"}, {"measurement": "fold lower affinity than for ITGαvβ6", "setting": "[9]", "result": 10, "unit": "fold"}, {"measurement": "percent of applied dose bound per 10^6 cells", "setting": "[10]", "result": 19.7, "unit": "%"}, {"measurement": "IC50", "setting": "[11]", "result": 3.5, "unit": "nM"}, {"measurement": "percent of applied dose bound per 10^6 cells", "setting": "[12]", "result": 10.6, "unit": "%"}, {"measurement": "IC50", "setting": "[13]", "result": 3.25, "unit": "nM"}, {"measurement": "Kd", "setting": "[14]", "result": 7.4, "unit": "nM"}, {"measurement": "percent of applied dose bound per 10^6 cells", "setting": "[15]", "result": 24.7, "unit": "%"}, {"measurement": "percent of applied dose bound per 10^6 cells", "setting": "[16]", "result": 17.6, "unit": "%"}, {"measurement": "Kd", "setting": "[17]", "result": 185, "unit": "nM"}]}, {"molecule": "GRCTFRGDLMQLCYPD (disulfide 3-13 (inferred); not fully specified (C-terminus); also: 125I on the tyrosine in labelled tracer form, Synthetic SFTI-1 derivate)", "note": "[SFITGv6]", "values": [{"measurement": "IC50", "setting": "[18]", "result": 14.1, "unit": "nM"}, {"measurement": "IC50", "setting": "[19]", "result": 16.1, "unit": "nM"}, {"measurement": "fold lower affinity than for ITGαvβ6", "setting": "[20]", "result": 10, "unit": "fold"}, {"measurement": "Kd", "setting": "[21]", "result": 185, "unit": "nM"}, {"measurement": "percent of applied dose bound per 10^6 cells", "setting": "[16]", "result": 13.5, "unit": "%"}]}, {"molecule": "GRCTFRGDKMQLCYPD (disulfide 3-13 (inferred); also: 125I on the tyrosine in labelled tracer form, Originally selected peptide of the SFTI8Ph library)", "note": "[SFPF-10]", "values": [{"measurement": "IC50", "setting": "[22]", "result": 18, "unit": "nM"}, {"measurement": "percent of applied dose bound per 10^6 cells", "setting": "[10]", "result": 3.1, "unit": "%"}, {"measurement": "percent of applied dose bound per 10^6 cells", "setting": "[12]", "result": 5, "unit": "%"}, {"measurement": "percent of applied dose bound per 10^6 cells", "setting": "[15]", "result": 7.2, "unit": "%"}, {"measurement": "percent of applied dose bound per 10^6 cells", "setting": "[16]", "result": 11, "unit": "%"}]}]}
